Here are results for 2 molecules from paper PMC7519114.

Assay [1] has as its target ACKR3 of primary mouse astrocytes (mouse (endogenous in primary astrocytes)) (UniProt P56485).
The target is the same in assay [2]. The source holds these as a separate data set.

UniProt P56485, sequence (P56485 whole entry): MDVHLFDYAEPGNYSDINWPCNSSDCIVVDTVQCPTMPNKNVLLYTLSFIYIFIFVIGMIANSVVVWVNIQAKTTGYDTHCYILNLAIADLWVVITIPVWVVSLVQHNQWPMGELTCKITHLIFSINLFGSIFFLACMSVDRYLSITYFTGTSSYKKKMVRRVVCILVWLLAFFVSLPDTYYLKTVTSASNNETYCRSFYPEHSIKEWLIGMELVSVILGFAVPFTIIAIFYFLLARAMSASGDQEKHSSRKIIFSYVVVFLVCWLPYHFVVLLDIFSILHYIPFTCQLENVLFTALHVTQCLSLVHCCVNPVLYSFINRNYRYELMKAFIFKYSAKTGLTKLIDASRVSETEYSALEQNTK

Regarding “Human/Feline/Rhesus Macaque CXCL12 (from UniProt P48061 22-93) (ligand)”, in assay [1], the inhibition of forskolin-induced cAMP production in astrocytes, CXCL12 (10 nM) was 40.8 % inhibition and the inhibition of forskolin-induced cAMP production in astrocytes, CXCL12 after pre-treatment with the CXCR4 antagonist AMD3100 (1 μM, 30 min) was found to be 44.9%. In assay [2], this molecule gave a junctional current (Ij) magnitude in astrocyte cell pairs (double patch-clamp), after bath-application of CXCL12 of 56.5%.

B1: Recombinant mouse CXCL11 (ligand)
chain: FLMFKQGRCLCIGPGMKAVKMAEIEKASVIYPSNGCDKVEVIVTMKAHKRQRCLDPRSKQARLIMQAIEKKNFLRRQNM
In turn, B1 registered a junctional current (Ij) magnitude in astrocyte cell pairs (double patch-clamp), after bath-application of CXCL11 in assay [2] of 52%.
